Reference: US20190302117

Tests used:
[1] = target: T1, Peptide 11: DEAIYATVAGGKKK (version of peptide 5 used for the kinetic experiments)
T1 chain: DEAIYATVAGGKKK

[2] = target: T2, Peptide 10: EDPIYVTLEGGKKK (version of peptide 2 used for the kinetic experiments)
T2 chain: EDPIYVTLEGGKKK

Row | Protein | Km [1] [µM] | kcat [1] [s⁻¹] | kcat/Km [1] [M⁻¹ s⁻¹] | 2/5 kcat/Km ratio (peptide 2 against peptide 5) [2] | Km [2] [µM] | kcat [2] [s⁻¹] | kcat/Km [2] [M⁻¹ s⁻¹]
1 | His6-ALK 1090-1416 (protein) HHHHHHTDYNPNYCFAGKTSSISDLKEVPRKNITLIRGLGHGAFGEVYEGQVSGMPNDPSPLQVAVKTLPEVCSEQDELDFLMEALIISKFNHQNIVRCIGVSLQSLPRFILLELMAGGDLKSFLRETRPRPSQPSSLAMLDLLHVARDIACGCQYLEENHFIHRDIAARNCLLTCPGPGRVAKIGDFGMARDIYRASYYRKGGCAMLPVKWMPPEAFMEGIFTSKTDTWSFGVLLWEIFSLGYMPYPSKSNQEVLEFVTSGGRMDPPKNCPGPVYRIMTQCWQHQPEDRPNFAIILERIEYCTQDPDVINTALPIEYGPLVEEEEKVPVRPK | > 200 | > 0.02 | 79 | 1.23 | > 200 | > 0.02 | 95
2 | BTK as GST fusion protein (protein) MAAVILESIFLKRSQQKKKTSPLNFKKRLFLLTVHKLSYYEYDFERGRRGSKKGSIDVEKITCVETVVPEKNPPPERQIPRRGEESSEMEQISIIERFPYPFQVVYDEGPLYVFSPTEELRKRWIHQLKNVIRYNSDLVQKYHPCFWIDGQYLCCSQTAKNAMGCQILENRNGSLKPGSSHRKTKKPLPPTPEEDQILKKPLPPEPAAAPVSTSELKKVVALYDYMPMNANDLQLRKGDEYFILEESNLPWWRARDKNGQEGYIPSNYVTEAEDSIEMYEWYSKHMTRSQAEQLLKQEGKEGGFIVRDSSKAGKYTVSVFAKSTGDPQGVIRHYVVCSTPQSQYYLAEKHLFSTIPELINYHQHNSAGLISRLKYPVSQQNKNAPSTAGLGYGSWEIDPKDLTFLKELGTGQFGVVKYGKWRGQYDVAIKMIKEGSMSEDEFIEEAKVMMNLSHEKLVQLYGVCTKQRPIFIITEYMANGCLLNYLREMRHRFQTQQLLEMCKDVCEAMEYLESKQFLHRDLAARNCLVNDQGVVKVSDFGLSRYVLDDEYTSSVGSKFPVRWSPPEVLMYSKFSSKSDIWAFGVLMWEIYSLGKMPYERFTNSETAEHIAQGLRLYRPHLASEKVYTIMYSCWHEKADERPTFKILLSNILDVMDEES | 84 | 0.26 | 3170 | 0.31 | 64 | 0.061 | 970
3 | GST-FLT3 564-993 (intracellular portion of human FLT3 fused to GST) (protein) HKYKKQFRYESQLQMVQVTGSSDNEYFYVDFREYEYDLKWEFPRENLEFGKVLGSGAFGKVMNATAYGISKTGVSIQVAVKMLKEKADSSEREALMSELKMMTQLGSHENIVNLLGACTLSGPIYLIFEYCCYGDLLNYLRSKREKFHRTWTEIFKEHNFSFYPTFQSHPNSSMPGSREVQIHPDSDQISGLHGNSFHSEDEIEYENQKRLEEEEDLNVLTFEDLLCFAYQVAKGMEFLEFKSCVHRDLAARNVLVTHGKVVKICDFGLARDIMSDSNYVVRGNARLPVKWMAPESLFEGIYTIKSDVWSYGILLWEIFSLGVNPYPGIPVDANFYKLIQNGFKMDQPFYATEEIYIIMQSCWAFDSRKRPSFPNLTSFLGCQLADAEEAMYQNVDGRVSECPHTYQNRRPFSREMDLGLLSPQAQVEDS | – | – | – | – | 41 | 0.013 | 304
